Data from paper PMC4949242, “Conjugative DNA Transfer Is Enhanced by Plasmid R1 Partitioning Proteins”.

Tests used:
[1] = biological target: TraI, relaxase/helicase of plasmid R1 (plasmid R1 (R1-16), in E. coli)
[2] = biological target: T1, ParR (Escherichia coli plasmid R1, UniProt P11906 1-117); experiment: EMSA; ParR 20-320 nM; EMSA: 10 mM Tris-HCl pH 7.5, 50 mM NaCl, 0.005% NP-40, 1 mM DTT, 1 mM EDTA, 25 C, 20 min (DNA 20 nM in Methods, 4 nM in Fig 5 legend); fluorescence: 20 mM Tris-HCl pH 7.5, 100 mM NaCl, 1 mM EDTA, 25 C, 4 nM oriT17*, 0-100 nM TraI; conditions: protein: recombinant; tags: none stated; chain copies: 2; label: 3'-TAMRA
T1 sequence: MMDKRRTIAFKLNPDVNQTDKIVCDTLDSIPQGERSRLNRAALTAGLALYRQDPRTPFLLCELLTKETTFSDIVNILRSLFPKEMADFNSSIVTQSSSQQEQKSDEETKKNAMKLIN

[3] = biological target: TraD, type IV coupling protein (T4CP) of plasmid R1 (plasmid R1 (R1-16), in E. coli)
[4] = biological target: T1, ParR; experiment: EMSA; shift from 5:1 protein/DNA molar ratio; EMSA: 10 mM Tris-HCl pH 7.5, 50 mM NaCl, 0.005% NP-40, 1 mM DTT, 1 mM EDTA, 25 C, 20 min (DNA 20 nM in Methods, 4 nM in Fig 5 legend); fluorescence: 20 mM Tris-HCl pH 7.5, 100 mM NaCl, 1 mM EDTA, 25 C, 4 nM oriT17*, 0-100 nM TraI; conditions: protein: recombinant; tags: none stated; chain copies: 2; label: 3'-TAMRA on strand 1; blunt
[5] = biological target: T2, TraIΔN308 (helicase domain) (Escherichia coli plasmid R1, UniProt Q6TDU5 309-1756, del1-308); experiment: fluorescence intensity titration; unit not printed with value; nM from titration range; EMSA: 10 mM Tris-HCl pH 7.5, 50 mM NaCl, 0.005% NP-40, 1 mM DTT, 1 mM EDTA, 25 C, 20 min (DNA 20 nM in Methods, 4 nM in Fig 5 legend); fluorescence: 20 mM Tris-HCl pH 7.5, 100 mM NaCl, 1 mM EDTA, 25 C, 4 nM oriT17*, 0-100 nM TraI; conditions: protein: recombinant; label: 3'-TAMRA
T2 sequence: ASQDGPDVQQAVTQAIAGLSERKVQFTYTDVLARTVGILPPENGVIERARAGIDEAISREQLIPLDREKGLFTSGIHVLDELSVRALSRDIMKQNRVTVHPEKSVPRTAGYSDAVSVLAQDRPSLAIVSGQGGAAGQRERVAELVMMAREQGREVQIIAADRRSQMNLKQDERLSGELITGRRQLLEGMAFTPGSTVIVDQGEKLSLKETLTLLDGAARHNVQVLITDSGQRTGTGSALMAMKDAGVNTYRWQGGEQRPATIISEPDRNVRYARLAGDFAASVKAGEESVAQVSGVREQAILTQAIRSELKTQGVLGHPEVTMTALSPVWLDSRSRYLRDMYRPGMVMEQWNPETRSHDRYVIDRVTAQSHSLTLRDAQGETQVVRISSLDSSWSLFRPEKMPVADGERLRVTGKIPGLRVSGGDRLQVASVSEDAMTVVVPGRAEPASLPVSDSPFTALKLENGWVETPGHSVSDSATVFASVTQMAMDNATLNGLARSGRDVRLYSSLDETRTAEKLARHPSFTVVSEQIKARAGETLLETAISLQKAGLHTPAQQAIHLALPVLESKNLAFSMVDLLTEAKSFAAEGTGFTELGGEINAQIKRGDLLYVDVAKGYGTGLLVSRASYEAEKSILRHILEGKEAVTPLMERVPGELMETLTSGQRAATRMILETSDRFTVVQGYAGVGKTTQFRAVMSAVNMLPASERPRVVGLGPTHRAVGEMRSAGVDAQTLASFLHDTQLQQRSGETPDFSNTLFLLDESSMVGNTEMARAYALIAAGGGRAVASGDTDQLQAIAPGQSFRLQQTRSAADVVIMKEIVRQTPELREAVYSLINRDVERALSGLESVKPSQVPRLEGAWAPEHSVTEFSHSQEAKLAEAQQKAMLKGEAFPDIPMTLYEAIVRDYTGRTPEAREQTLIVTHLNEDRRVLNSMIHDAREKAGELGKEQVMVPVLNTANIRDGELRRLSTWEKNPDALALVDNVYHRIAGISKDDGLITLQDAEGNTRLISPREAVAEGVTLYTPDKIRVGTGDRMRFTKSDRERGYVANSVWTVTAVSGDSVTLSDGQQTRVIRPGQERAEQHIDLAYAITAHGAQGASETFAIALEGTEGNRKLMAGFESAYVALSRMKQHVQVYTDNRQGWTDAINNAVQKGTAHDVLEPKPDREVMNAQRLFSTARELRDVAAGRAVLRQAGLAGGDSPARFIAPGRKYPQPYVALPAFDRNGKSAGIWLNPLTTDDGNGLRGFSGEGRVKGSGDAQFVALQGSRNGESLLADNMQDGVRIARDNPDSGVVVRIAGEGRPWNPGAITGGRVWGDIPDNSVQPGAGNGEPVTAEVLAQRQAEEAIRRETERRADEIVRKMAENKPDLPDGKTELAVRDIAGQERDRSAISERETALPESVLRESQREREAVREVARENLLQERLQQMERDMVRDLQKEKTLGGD

[6] = biological target: T3, TraIN308 (relaxase domain) (Escherichia coli plasmid R1, UniProt Q6TDU5 1-308); experiment: as above; conditions: protein: recombinant; label: 3'-TAMRA
T3 sequence: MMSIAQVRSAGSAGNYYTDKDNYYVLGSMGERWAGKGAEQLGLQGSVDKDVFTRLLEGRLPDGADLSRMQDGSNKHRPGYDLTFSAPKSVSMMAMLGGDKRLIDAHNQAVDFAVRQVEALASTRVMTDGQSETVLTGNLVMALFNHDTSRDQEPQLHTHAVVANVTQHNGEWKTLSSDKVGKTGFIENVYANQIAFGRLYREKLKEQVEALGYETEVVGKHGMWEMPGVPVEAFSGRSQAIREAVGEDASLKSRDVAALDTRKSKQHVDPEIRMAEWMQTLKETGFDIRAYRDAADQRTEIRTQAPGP

[7] = biological target: TraI (Escherichia coli plasmid R1, UniProt Q6TDU5 1-1756); experiment: as above; conditions: protein: recombinant; label: 3'-TAMRA

Molecule “ParR with C-terminal FLAG epitope (pMS-CFLAGparR) (natural protein)” has a TraI (25 nM) relaxase activity on supercoiled oriT plasmid pDE100 (4 nM), percent open circular DNA, with increasing purified untagged ParR; maximum at 10 nM ParR [1] of 4 fold.

CGAACGAGCAGTTGTTTCAGCG (ssDNA) [ssrnd]: no binding [2].

ACCAAAAGCACCACACCCCACGCAAAAACAAG (ssDNA) [ssoriT]: no binding [2].

B1: ParM with C-terminal FLAG epitope (pMS-CFLAGparM) (natural protein)
chain: MLVFIDDGSTNIKLQWQESDGTIKQHISPNSFKREWAVSFGDKKVFNYTLNGEQYSFDPISPDAVVTTNIAWQYSDVNVVAVHHALLTSGLPVSEVDIVCTLPLTEYYDRNNQPNTENIERKKANFRKKITLNGGDTFTIKDVKVMPESIPAGYEVLQELDELDSLLIIDLGGTTLDISQVMGKLSGISKIYGDSSLGVSLVTSAVKDALSLARTKGSSYLADDIIIHRKDNNYLKQRINDENKISIVTEAMNEALRKLEQRVLNTLNEFSGYTHVMVIGGGAELICDAVKKHTQIRDERFFKTNNSQYDLVNGMYLIGN
Work on B1 yielded a TraI (25 nM) relaxase activity on supercoiled oriT plasmid pDE100 (4 nM), percent open circular DNA, with increasing purified untagged ParM; maximum at 20-30 nM ParM [1] of 3 fold.

B2: CreParMK123A (Cre fused to ParM residues 2-320 with K123A) (protein)
chain: LVFIDDGSTNIKLQWQESDGTIKQHISPNSFKREWAVSFGDKKVFNYTLNGEQYSFDPISPDAVVTTNIAWQYSDVNVVAVHHALLTSGLPVSEVDIVCTLPLTEYYDRNNQPNTENIERKAANFRKKITLNGGDTFTIKDVKVMPESIPAGYEVLQELDELDSLLIIDLGGTTLDISQVMGKLSGISKIYGDSSLGVSLVTSAVKDALSLARTKGSSYLADDIIIHRKDNNYLKQRINDENKISIVTEAMNEALRKLEQRVLNTLNEFSGYTHVMVIGGGAELICDAVKKHTQIRDERFFKTNNSQYDLVNGMYLIGN
B2 gave a translocation of CreParMK123A to recipient cells by the R1-16 T4SS (CRAfT), percent of wild type Cre-ParM (% of wild type levels) [3] of 24.5.

B3: CreParMS39A (Cre fused to ParM residues 2-320 with S39A) (protein)
chain: LVFIDDGSTNIKLQWQESDGTIKQHISPNSFKREWAVAFGDKKVFNYTLNGEQYSFDPISPDAVVTTNIAWQYSDVNVVAVHHALLTSGLPVSEVDIVCTLPLTEYYDRNNQPNTENIERKKANFRKKITLNGGDTFTIKDVKVMPESIPAGYEVLQELDELDSLLIIDLGGTTLDISQVMGKLSGISKIYGDSSLGVSLVTSAVKDALSLARTKGSSYLADDIIIHRKDNNYLKQRINDENKISIVTEAMNEALRKLEQRVLNTLNEFSGYTHVMVIGGGAELICDAVKKHTQIRDERFFKTNNSQYDLVNGMYLIGN
With B3 the translocation of CreParMS39A to recipient cells by the R1-16 T4SS (CRAfT), percent of wild type Cre-ParM (% of wild type levels) [3] was 59.

B4: dsparC (iterons 1 and 2) (dsDNA)
DNA 1: AAACAAAACCCAAAAACAACCC
DNA 2: GGGTTGTTTTTGGGTTTTGTTT
B4: binds [4].

For TTTGCGTGGGGTGTGGT (ssDNA) [oriT17*], the Kd [5] was 82.6 ± 13.1 nM, the Kd [6] was 0.87 ± 0.19 nM and the Kd [7] was 4.05 ± 0.32 nM.

AAACAAAACCCAAAAACAACCC (ssDNA) [ssparC]: no binding [2].
